Among the data in US20140271623A1 are EC50 values [µg/mL] for C1q requirement for induction of CDC of Daudi cells and efficacy of C1q utilization, fold improvement by carboxypeptidase B treatment values, retold here.

For the assay, the target named is C1q (Complement Technologies, Tyler, Tex.) (UniProt P02745). The assay can be described thus: cell-based or functional assay.
Chain of UniProt P02745 (P02745 23-245 limits assumed, chain 1 of 3): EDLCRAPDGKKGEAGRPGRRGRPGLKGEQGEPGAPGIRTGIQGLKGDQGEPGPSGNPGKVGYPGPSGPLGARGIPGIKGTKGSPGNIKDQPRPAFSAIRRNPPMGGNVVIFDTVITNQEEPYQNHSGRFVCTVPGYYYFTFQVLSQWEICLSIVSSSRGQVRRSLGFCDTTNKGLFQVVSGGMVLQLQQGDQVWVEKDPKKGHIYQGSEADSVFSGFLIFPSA
Chain of UniProt P02745 (P02746 28-253 limits assumed, chain 2 of 3, further chain): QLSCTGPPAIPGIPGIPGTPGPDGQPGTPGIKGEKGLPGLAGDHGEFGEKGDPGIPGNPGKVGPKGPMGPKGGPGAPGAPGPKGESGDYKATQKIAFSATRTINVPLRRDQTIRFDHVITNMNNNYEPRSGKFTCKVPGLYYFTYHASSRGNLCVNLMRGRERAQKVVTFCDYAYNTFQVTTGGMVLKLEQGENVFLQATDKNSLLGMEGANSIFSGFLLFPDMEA
Chain of UniProt P02745 (P02747 29-245 limits assumed, chain 3 of 3, further chain): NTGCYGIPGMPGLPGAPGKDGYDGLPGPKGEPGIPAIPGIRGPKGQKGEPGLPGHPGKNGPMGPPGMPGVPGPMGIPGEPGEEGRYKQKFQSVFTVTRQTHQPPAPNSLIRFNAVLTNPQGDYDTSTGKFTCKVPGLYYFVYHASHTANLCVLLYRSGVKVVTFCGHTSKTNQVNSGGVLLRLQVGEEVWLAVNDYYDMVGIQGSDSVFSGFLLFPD

“Anti-CD38 antibody (005), collected K2 isoform (two heavy-chain C-terminal lysines per antibody)” registered an EC50 values [µg/mL] for C1q requirement for induction of CDC of Daudi cells of 4.8 µg/mL. “Anti-CD38 antibody (005), unfractionated preparation after carboxypeptidase B treatment” showed an EC50 values [µg/mL] for C1q requirement for induction of CDC of Daudi cells of 0.8 µg/mL and an efficacy of C1q utilization, fold improvement by carboxypeptidase B treatment of less than 2 fold. The substance “Anti-CD38 antibody (005), unfractionated preparation isolated from hybridoma supernatant” returned an EC50 values [µg/mL] for C1q requirement for induction of CDC of Daudi cells of 1.3 µg/mL.
